Laboratory results as given in PMC5148612.

Legend:
[1] = biological target: Atg5 K57E,N84E-TAP (S. cerevisiae) (UniProt Q12380); test: co-IP; lysates of atg16∆ atg19∆ S. cerevisiae with integrated Atg5-TAP or Atg5 K57E,N84E-TAP, plasmid 6xmyc-Atg19 and plasmid Atg16 wild type; IgG beads (Figure 5F)
[2] = biological target: Atg5 K57E,N84E-TAP (S. cerevisiae) (UniProt Q12380); test: co-IP; as a14 but with plasmid Atg16 E102A instead of Atg16 wild type (Figure 5F)

Chain of Atg5 K57E,N84E-TAP (S. cerevisiae) (Q12380 whole entry K57E/N84E): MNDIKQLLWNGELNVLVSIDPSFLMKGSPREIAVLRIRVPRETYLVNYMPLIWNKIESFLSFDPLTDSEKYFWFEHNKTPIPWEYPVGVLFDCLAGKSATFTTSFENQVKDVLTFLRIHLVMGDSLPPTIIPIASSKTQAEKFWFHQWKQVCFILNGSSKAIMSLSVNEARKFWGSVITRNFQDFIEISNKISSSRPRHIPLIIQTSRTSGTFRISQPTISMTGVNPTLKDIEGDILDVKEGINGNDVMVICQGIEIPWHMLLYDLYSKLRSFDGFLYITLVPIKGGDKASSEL

## 6xmyc-Atg19 (from UniProt P35193 1-415) (natural protein)
[1]
  6xmyc-Atg19 pulled down, percent of the sample with wild type Atg5 and Atg16: 13%
[2]
  6xmyc-Atg19 pulled down, percent of the sample with wild type Atg5 and Atg16: 2.9%
